Measured values reported in IntAct's records for PubMed 22483105.

Molecular target: ubc4_yeast UBC4 (UniProt P15731)
Sequence (P15731 whole entry): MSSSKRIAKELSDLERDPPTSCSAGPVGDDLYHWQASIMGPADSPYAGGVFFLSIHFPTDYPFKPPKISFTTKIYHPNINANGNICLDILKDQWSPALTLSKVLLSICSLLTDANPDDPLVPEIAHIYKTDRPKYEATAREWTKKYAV

Row | Substance | effect of a mutation on the interaction
1 | E3 ubiquitin-protein ligase RSP5 (Saccharomyces cerevisiae), P39940 D614M | decreasing interaction strength
2 | E3 ubiquitin-protein ligase RSP5 (Saccharomyces cerevisiae), P39940 S594M | decreasing interaction strength
3 | E3 ubiquitin-protein ligase RSP5 (Saccharomyces cerevisiae), P39940 W597M | disrupting interaction strength

Next, values leading:

Row | effect of a mutation on the interaction | Substance
4 | decreasing interaction strength | E3 ubiquitin-protein ligase RSP5 (Saccharomyces cerevisiae), P39940 L607M
5 | decreasing interaction strength | E3 ubiquitin-protein ligase RSP5 (Saccharomyces cerevisiae), P39940 Y647M
